{"source": "paper PMC4159622", "key": {"[1]": {"target": "FBXO11 (UniProt Q86XK2)", "assay": "co-IP of alanine scanning mutants", "conditions": "reference: wild type; sites S11"}, "[2]": {"target": "FBXO11 (UniProt Q86XK2)", "assay": "co-IP with anti-HA", "conditions": "reference: wild type; sites S11"}}}
{"substance": "SNAIL (from UniProt O95863) S11A", "values": [{"measurement": "binding against the reference", "setting": "[1]", "value": "lost"}]}
{"substance": "SNAIL (from UniProt O95863) S11V", "values": [{"measurement": "binding against the reference", "setting": "[2]", "value": "lost"}]}
